Results from article PMC5515355, “Frizzled 7 and PIP2 binding by syntenin PDZ2 domain supports Frizzled 7 trafficking and signalling” (Nature Communications, 2016).
Ends that are not written are not given here. carboxifluorescein = carboxyfluorescein

Columns and labels:
[1] = target: syntenin PDZ1–PDZ2 tandem (amino acids 107–275), wild type (human) (UniProt O00560); experiment: ITC; VP-ITC; Frizzled 7 peptide (1.0 mM) injected (32 x 8 μl) into PDZ1–PDZ2 tandem (30–60 μM); 10 mM Mes pH 7.0, 5 mM β-mercaptoethanol; binary sequential binding model
[2] = target: T1, syntenin PDZ2 domain (residues 196–275), wild type (human, UniProt O00560 196-275); experiment: SPR; BIAcore T200, 25 °C; biotinylated Frizzled 7 19mer peptides (100 RU) immobilised on a streptavidin chip, His-tagged syntenin proteins as analytes; 10 mM HEPES pH 7.4, 150 mM NaCl, 0.005% Tween 20; equilibrium titration, apparent KD; without IP3; settings: both partners purified
T1 construct: syntenin, PDZ2 domain, amino acids 196–275; also called PDZ2 wild type; source: ER2566 cells (pETM-11 vector), purified recombinant; not shown: His6, N-terminal, kept
T1 sequence (looked up): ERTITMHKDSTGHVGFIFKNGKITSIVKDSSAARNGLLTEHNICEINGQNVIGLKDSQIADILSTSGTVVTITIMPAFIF

[3] = target: T1, syntenin PDZ2 domain (residues …); experiment: SPR; as a3, but the syntenin protein pre-incubated with 0.5 mM Ins(1,4,5)P3 (IP3, PIP2 head group) before perfusion; apparent KD; settings: both partners purified
[4] = target: T2, syntenin PDZ2 domain (196–275) K214A (human, UniProt O00560 196-275, K214A); experiment: as above; settings: both partners purified
T2 construct: syntenin, PDZ2 domain, amino acids 196–275, K214A; also called PDZ2 single mutant K214A; source: ER2566 cells (pETM-11 vector), purified; not shown: His6, N-terminal, kept
T2 sequence (looked up): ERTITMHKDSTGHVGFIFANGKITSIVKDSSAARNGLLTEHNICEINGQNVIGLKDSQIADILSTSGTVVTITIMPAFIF

[5] = target: T3, syntenin PDZ1–PDZ2 tandem (amino acids 107–275), wild type (human, UniProt O00560 107-275); experiment: as above; settings: both partners purified
T3 construct: syntenin, PDZ1–PDZ2 tandem, amino acids 107–275; also called PDZ tandem of syntenin; PDZ1–PDZ2 tandem wild-type; source: ER2566 cells (pETM-11 vector), purified; not shown: His6, N-terminal, kept
T3 sequence (looked up): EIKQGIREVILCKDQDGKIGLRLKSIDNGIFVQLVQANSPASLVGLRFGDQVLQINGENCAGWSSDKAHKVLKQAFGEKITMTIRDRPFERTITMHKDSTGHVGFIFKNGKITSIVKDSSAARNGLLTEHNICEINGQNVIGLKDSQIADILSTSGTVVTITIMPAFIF

[6] = target: T4, syntenin PDZ2 domain (196–275) N215D (human, UniProt O00560 196-275, N215D); experiment: as above; settings: both partners purified
T4 construct: syntenin, PDZ2 domain, amino acids 196–275, N215D; also called PDZ2 single mutant N215D; source: ER2566 cells (pETM-11 vector), purified; not shown: His6, N-terminal, kept
T4 sequence (looked up): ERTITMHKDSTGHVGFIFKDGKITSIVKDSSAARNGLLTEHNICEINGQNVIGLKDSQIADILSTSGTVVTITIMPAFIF

[7] = target: T5, syntenin PDZ1–PDZ2 tandem (107–275) mutant K214A/K250A (human, UniProt O00560 107-275, K214A | K250A); experiment: SPR; BIAcore T200, 25 °C; biotinylated Frizzled 7 19mer peptides (100 RU) immobilised on a streptavidin chip, His-tagged syntenin proteins as analytes; 10 mM HEPES pH 7.4, 150 mM NaCl, 0.005% Tween 20; equilibrium titration, apparent KD; without IP3; settings: both partners purified
T5 construct: syntenin, PDZ1–PDZ2 tandem, amino acids 107–275, K214A and K250A; PDB 4Z33 holds the wild-type parent of the same limits; also called PDZ1–PDZ2 tandem mutant K214A/K250A; K214A/K250A mutant tandem; source: ER2566 cells (pETM-11 vector), purified; not shown: His6, N-terminal, kept
T5 sequence (looked up): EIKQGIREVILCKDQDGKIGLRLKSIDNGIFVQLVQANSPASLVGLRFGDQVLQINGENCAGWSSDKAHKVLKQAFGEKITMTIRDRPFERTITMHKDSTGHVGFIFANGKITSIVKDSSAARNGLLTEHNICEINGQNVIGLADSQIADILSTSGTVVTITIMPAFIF

[8] = target: T6, syntenin PDZ2 domain (196–275) K250A (human, UniProt O00560 196-275, K250A); experiment: as above; settings: both partners purified
T6 construct: syntenin, PDZ2 domain, amino acids 196–275, K250A; also called PDZ2 single mutant K250A; source: ER2566 cells (pETM-11 vector), purified; not shown: His6, N-terminal, kept
T6 sequence (looked up): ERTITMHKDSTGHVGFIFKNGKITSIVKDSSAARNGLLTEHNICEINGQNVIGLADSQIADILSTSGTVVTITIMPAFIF

[9] = target: T3, syntenin PDZ1–PDZ2 tandem (amino acids …); experiment: as above; settings: both partners purified
[10] = target: T7, syntenin PDZ2 domain (196–275) K214A/K250A (human, UniProt O00560 196-275, K214A | K250A); experiment: as above; settings: both partners purified
T7 construct: syntenin, PDZ2 domain, amino acids 196–275, K214A and K250A; also called PDZ2 double mutant; PDZ2 mutant K214A/K250A; source: ER2566 cells (pETM-11 vector), purified; not shown: His6, N-terminal, kept
T7 sequence (looked up): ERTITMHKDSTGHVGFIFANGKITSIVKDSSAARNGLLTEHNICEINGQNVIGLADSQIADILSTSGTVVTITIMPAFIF

[11] = target: T3, syntenin PDZ1–PDZ2 tandem (amino acids …); experiment: MST; as a7, in the presence of Ins(1,4,5)P3 head group (concentration not stated); fit of Hill's equation; settings: both partners purified
[12] = target: T1, syntenin PDZ2 domain (residues …); experiment: SPR; competition: PDZ2 wild type (30 μM) incubated with 0–4 mM 6mer Frizzled 7 peptide (KGETAV), then perfused over the Frizzled 7 peptide immobilised on a BIAcore streptavidin chip; equilibrium responses; settings: both partners purified
[13] = target: T3, syntenin PDZ1–PDZ2 tandem (amino acids …); experiment: crystal structure; PDZ tandem co-crystallised with C4-PIP2 and the Frizzled 7 sixmer, molar ratio protein:lipid:peptide 10:23:23; 2.45 Å; settings: both partners purified

“8mer C-terminal peptide from Frizzled 7 (from UniProt O75084 567-574)” gave a KD of the first site (binary sequential binding model) [1] of 20.5 µM and a KD of the second site (binary sequential binding model) [1] of 4.3 µM.

B1: Frizzled 7 K-5A mutant 19mer, biotinylated (SWRRFYHRLSHSSAGETAV) (peptide)
peptide: SWRRFYHRLSHSSAGETAV
modifications: also: biotinylated, position not given here
notes: Frizzled 7, last 19 residues with the lysine at position -5 (lysine 569) replaced by alanine; Immobilised on a streptavidin sensor chip; also called Frizzled 7 K-5A 19mer; source: synthetic peptide, GenScript
B1: binds [2].

B2: Frizzled 7 wild-type 19mer, biotinylated C-terminal peptide (SWRRFYHRLSHSSKGETAV) (peptide)
peptide: SWRRFYHRLSHSSKGETAV
modifications: also: biotinylated, position not given here
notes: Frizzled 7, last 19 residues, part of the cytoplasmic domain; K-5 is lysine 569; Immobilised on a streptavidin sensor chip; also called 19 amino acids C-terminal peptide from Frizzled 7; Frizzled 7 19mer; source: synthetic peptide, GenScript
With B2 the Kd [3] was 5 µM, the binding result [4] was “binds” and the Kd [5] was 2000 nM. For the same molecule, the binding result [6] was “binds”, the Kd [2] was 32 µM and the binding result [7] was “binds”. The binding result [8] was “binds”, the Kd [9] was 8 µM and the binding result [10] was “binds”.

B3: 6mer C-terminal peptide from Frizzled 7, N-terminally labelled with carboxifluorescein (peptide)
peptide: carboxifluorescein-KGETAV
notes: Frizzled 7, C-terminal six residues; also called Frizzled 7 peptide (microscale thermophoresis); source: synthetic peptide (chemically synthesized, JPT, Germany)
For B3, the Kd [11] was 1200 nM.

B4: C-terminal hexapeptide of Frizzled 7 (KGETAV) (peptide)
peptide: KGETAV
notes: Frizzled 7, C-terminal six residues; K-5 is lysine 569; also called Fz7(6mer); 6mer Frizzled 7 peptide
B4: binds [12]; binds [13].
